The assay concerns the target the two scFvs (16-22-H05-sc02 and 16-22-H05-sc04). Description: competition ELISA, coated scFv, biotinylated TNFα, unlabeled TNFβ against unlabeled TNFα.

Some results are limits rather than exact numbers.

Experimental findings from patent publication US12209122 are described below.

B1: recombinant human TNFβ (Peprotech, Cat. No. 300-01B) (ligand, UniProt P01374 35-205, looked up)
chain: LPGVGLTPSAAQTARQHPKMHLAHSTLKPAAHLIGDPSKQNSLLWRANTDRAFLQDGFSLSNNSLLVPTSGIYFVYSQVVFSGKAYSPKATSSPLYLAHEVQLFSSQYPFHVPLLSSQKMVYPGLQEPWLHSMYHGAAFQLTQGDQLSTHTDGIPHLVLSPSTVFFGAFAL
Molecule B1 had a selectivity for binding to TNFα over TNFβ (fold) of more than 20000 fold.
